# Article PMC9082959, “Mechanism of Assembly of the Non-Covalent Spectrin Tetramerization Domain from Intrinsically Disordered Partners” (Journal of molecular biology, 2013)
# T1: β16β17 K53A (human, UniProt P11277 1898-2083, K2056A)
# T1 construct: erythrocyte β-spectrin, human, residues 1898-2083 (β16β17); mutant of m2; also called K2056A; source: E. coli C41(DE3), purified (Ni2+ agarose, thrombin cleavage, gel filtration)
# T1 sequence (looked up): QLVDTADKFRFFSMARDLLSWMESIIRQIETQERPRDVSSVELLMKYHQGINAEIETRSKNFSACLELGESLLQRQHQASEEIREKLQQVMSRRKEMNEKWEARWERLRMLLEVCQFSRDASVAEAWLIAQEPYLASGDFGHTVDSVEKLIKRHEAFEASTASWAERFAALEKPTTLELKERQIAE
# T2: β16β17 C9A (human, UniProt P11277 1898-2083, C2012A)
# T2 construct: erythrocyte β-spectrin, human, residues 1898-2083 (β16β17); mutant of m2; also called C2012A; source: E. coli C41(DE3), purified (Ni2+ agarose, thrombin cleavage, gel filtration)
# T2 sequence (looked up): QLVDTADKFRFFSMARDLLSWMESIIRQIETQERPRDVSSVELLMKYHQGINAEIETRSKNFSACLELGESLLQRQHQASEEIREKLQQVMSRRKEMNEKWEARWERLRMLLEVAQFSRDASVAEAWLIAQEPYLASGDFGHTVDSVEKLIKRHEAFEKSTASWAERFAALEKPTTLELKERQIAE
# T3: β16β17 S16G (human, UniProt P11277 1898-2083, S2019G)
# T3 construct: erythrocyte β-spectrin, human, residues 1898-2083 (β16β17); mutant of m2; also called S2019G; source: E. coli C41(DE3), purified (Ni2+ agarose, thrombin cleavage, gel filtration)
# T3 sequence (looked up): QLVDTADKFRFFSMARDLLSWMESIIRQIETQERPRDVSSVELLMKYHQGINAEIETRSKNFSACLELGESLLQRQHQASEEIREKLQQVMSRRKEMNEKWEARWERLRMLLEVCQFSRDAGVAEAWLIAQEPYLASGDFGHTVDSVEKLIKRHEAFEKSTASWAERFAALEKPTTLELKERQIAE
# T4: β16β17 R13G (human, UniProt P11277 1898-2083, R2016G)
# T4 construct: erythrocyte β-spectrin, human, residues 1898-2083 (β16β17); mutant of m2; also called R2016G; source: E. coli C41(DE3), purified (Ni2+ agarose, thrombin cleavage, gel filtration)
# T4 sequence (looked up): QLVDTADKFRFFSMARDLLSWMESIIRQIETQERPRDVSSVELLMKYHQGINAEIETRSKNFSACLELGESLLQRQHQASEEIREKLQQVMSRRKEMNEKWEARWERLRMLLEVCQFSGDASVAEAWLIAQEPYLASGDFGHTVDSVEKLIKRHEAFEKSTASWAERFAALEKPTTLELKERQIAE
# T5: β16β17 K67A (human, UniProt P11277 1898-2083, K2070A)
# T5 construct: erythrocyte β-spectrin, human, residues 1898-2083 (β16β17); mutant of m2; also called K2070A; source: E. coli C41(DE3), purified (Ni2+ agarose, thrombin cleavage, gel filtration)
# T5 sequence (looked up): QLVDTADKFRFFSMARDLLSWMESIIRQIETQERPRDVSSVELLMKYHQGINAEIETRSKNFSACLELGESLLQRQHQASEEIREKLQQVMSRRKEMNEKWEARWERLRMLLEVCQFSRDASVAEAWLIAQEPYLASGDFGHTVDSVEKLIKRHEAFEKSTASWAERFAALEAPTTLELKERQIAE
# T6: β16β17 S57G (human, UniProt P11277 1898-2083, S2060G)
# T6 construct: erythrocyte β-spectrin, human, residues 1898-2083 (β16β17); mutant of m2; also called S2060G; source: E. coli C41(DE3), purified (Ni2+ agarose, thrombin cleavage, gel filtration)
# T6 sequence (looked up): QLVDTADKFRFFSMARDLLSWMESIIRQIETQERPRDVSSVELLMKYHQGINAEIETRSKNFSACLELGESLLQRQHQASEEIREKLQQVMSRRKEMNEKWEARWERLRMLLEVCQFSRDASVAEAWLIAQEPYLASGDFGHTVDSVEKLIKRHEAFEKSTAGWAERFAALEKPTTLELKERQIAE
# Experiments:
# Test in all cases: ITC; β16β17 at 25–50 μM in the cell titrated with 15–20 injections to 2–2.5 eq of α0α1; one-site binding model; PBS (50 mM sodium phosphate, 150 mM NaCl, pH 7.04), 25 °C; mutants only against the wild-type partner
# Settings in all cases: both partners purified
# [1] = target: T1, β16β17 K53A
# [2] = target: T2, β16β17 C9A
# [3] = target: T3, β16β17 S16G
# [4] = target: T4, β16β17 R13G
# [5] = target: T5, β16β17 K67A
# [6] = target: T6, β16β17 S57G
binder,measurement,setting,value
"α0α1 (erythrocyte α-spectrin residues 2–163), wild type (domain or fragment, human, UniProt P02549 2-163, looked up, synthetic gene (GenScript) in a modified pRSETA plasmid; also called α1α0; source: E. coli C41(DE3), purified (Ni2+ agarose, thrombin cleavage, gel filtration)) EQFPKETVVESSGPKVLETAEEIQERRQEVLTRYQSFKERVAERGQKLEDSYHLQVFKRDADDLGKWIMEKVNILTDKSYEDPTNIQGKYQKHQSLEAEVQTKSRLMSELEKTREERFTMGHSAHEETKAHIEELRHLWDLLLELTLEKGDQLLRALKFQQY",Ka,[1],1.5e+06 M⁻¹
same,Ka,[2],2.7e+06 M⁻¹
same,Ka,[3],360000 M⁻¹
same,Ka,[4],71000 M⁻¹
same,Ka,[5],500000 M⁻¹
same,Ka,[6],900000 M⁻¹
